Data reported in PMC3689846 (Science (New York, N.Y.), 2013).

Target: eOD-GT6 (germline-targeting engineered outer domain of gp120) (HIV-1 isolate HXB2, engineered outer …)
Test: SPR

B1: NIH45-46 (mature) (antibody, V domains shown)
VH: QVRLSQSGGQMKKPGESMRLSCRASGYEFLNCPINWIRLAPGRRPEWMGWLKPRGGAVNYARKFQGRVTMTRDVYSDTAFLELRSLTSDDTAVYFCTRGKYCTARDYYNWDFEHWGRGAPVTVSS
VL: EIVLTQSPATLSLSPGETAIISCRTSQSGSLAWYQQRPGQAPRLVIYSGSTRAAGIPDRFSGSRWGADYNLSISNLESGDFGVYYCQQYEFFGQGTKVQVD
  Kd: 4 nM
